The values that follow are results of earlier work, collected in article PMC5751705.

For one data set, the target named is YopB (Yersinia pestis) (UniProt Q06114).
Data set [1] concerns the target substance P (Homo sapiens) (UniProt P20366).

Sequence of YopB (Yersinia pestis) (Q06114 whole entry): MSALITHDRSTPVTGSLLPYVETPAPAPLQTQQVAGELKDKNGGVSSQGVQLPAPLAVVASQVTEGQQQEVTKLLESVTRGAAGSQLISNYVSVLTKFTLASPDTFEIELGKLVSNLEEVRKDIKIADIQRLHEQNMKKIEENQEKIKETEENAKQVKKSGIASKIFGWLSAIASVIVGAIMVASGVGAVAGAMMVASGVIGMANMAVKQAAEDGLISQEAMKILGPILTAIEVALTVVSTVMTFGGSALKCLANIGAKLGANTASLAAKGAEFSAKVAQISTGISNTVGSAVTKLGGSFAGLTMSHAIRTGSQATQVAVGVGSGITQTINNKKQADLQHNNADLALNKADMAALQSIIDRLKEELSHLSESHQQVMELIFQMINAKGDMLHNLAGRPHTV
Sequence of NK1R (P25103 whole entry): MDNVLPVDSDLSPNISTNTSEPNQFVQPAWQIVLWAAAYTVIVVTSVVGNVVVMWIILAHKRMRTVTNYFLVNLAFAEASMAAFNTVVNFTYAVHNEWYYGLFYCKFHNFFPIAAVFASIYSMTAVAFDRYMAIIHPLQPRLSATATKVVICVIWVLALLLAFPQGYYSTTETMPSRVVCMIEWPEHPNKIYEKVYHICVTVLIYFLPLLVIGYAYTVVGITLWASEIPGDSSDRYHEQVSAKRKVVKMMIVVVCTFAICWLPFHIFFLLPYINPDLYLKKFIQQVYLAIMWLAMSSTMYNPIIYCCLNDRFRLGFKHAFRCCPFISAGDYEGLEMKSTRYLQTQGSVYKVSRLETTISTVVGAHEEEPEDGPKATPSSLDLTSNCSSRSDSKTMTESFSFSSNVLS
Sequence of LcrV (P0C7U7 whole entry): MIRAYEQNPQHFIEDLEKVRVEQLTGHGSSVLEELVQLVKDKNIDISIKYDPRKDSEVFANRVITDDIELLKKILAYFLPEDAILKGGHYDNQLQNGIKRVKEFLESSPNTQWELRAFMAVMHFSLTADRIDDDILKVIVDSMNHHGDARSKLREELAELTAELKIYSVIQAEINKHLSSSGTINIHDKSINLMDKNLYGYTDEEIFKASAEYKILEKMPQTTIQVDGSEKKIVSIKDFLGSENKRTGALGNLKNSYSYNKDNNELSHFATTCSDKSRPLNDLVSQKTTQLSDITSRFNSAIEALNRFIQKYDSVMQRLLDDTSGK
Sequence of substance P (Homo sapiens) (P20366 whole entry, looked up): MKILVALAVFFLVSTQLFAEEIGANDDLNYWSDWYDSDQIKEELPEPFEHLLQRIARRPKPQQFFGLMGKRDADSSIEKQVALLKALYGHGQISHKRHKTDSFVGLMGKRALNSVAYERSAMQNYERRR

What is called Kd is the free concentration of one partner at which half of the binding sites on the other are occupied at equilibrium, for simple one-to-one binding. As for LcrV (from UniProt P0C7U7), in the data set with YopB (Yersinia pestis), the Kd is 20.5 nM. Turning to NK1R (from UniProt P25103), the dissociation constant Kd in data set [1] is 83 nM.
